# System: ADP-ribosylated HNP-1
# Sequence (chain, as listed by the source): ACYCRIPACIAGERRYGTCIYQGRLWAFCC
substance,measurement,value
recombinant human ADP-ribosylarginine hydrolase,Release of ADP-ribose from ADP-ribosylated HNP-1 (MALDI-MS),"released a molecule of 3,444 daltons consistent with HNP-1 (calculated 3, 443 daltons)"
